{"source": "patent US20060160990A1", "about": "(RIKEN, published 2006)", "proteins": {"B1": {"name": "Kaede (fluorescent protein derived from Trachyphyllia geoffroyi) (other)", "chain": "MSLIKPEMKIKLLMEGNVNGHQFVIEGDGKGHPFEGKQSMDLVVKEGAPLPFAYDILTTAFHYGNRVFAKYPDHIPDYFKQSFPKGFSWERSLMFEDGGVCIATNDITLKGDTFFNKVRFDGVNFPPNGPVMQKKTLKWEASTEKMYLRDGVLTGDITMALLLKGDVHYRCDFRTTYKSRQEGVKLPGYHFVDHCISILRHDKDYNEVKLYEHAVAHSGLPDNVK", "notes": "also called first fluorescent protein of the present invention; not shown: N-terminal His-tag from the pRSETB vector"}, "B2": {"name": "Kaede 2 (dimeric mutant of Kaede, T158R and A160E) (other)", "chain": "B1 chain with T158R, A160E", "notes": "No tag or expression construct is stated for the gel sample"}, "B3": {"name": "Momiji (fluorescent protein derived from Scolymia vitiensis) (other)", "chain": "MVSVIKDEMKVNLRMEGSVNGHDFVIDGLGSGKPKEGTQTIELKVVKGGPLPFAYDILTTAFHYGNRVFAKYPKDIPNYFEQSFPEGYSWERSMIFEDGGICIARNDITMDGGTFYNKVRFYGVNFPPNGPVMQKKTQKWEQSTEKMYARDGVLTGDINMALLLKGGGHYRCDFRTTFKAKEKGVKLPGYHFIDHCIEILSHRNDYNNVTLFEHAVARSGLQDKEKQQQ", "notes": "Found to be a tetramer by pseudonative SDS/PAGE; also called WT (Momiji); wild type (Momiji); not shown: His-tag from the pET28 vector, said to be at the N-terminus"}, "B4": {"name": "d16 (dimeric mutant of Momiji) (other)", "chain": "MVSVIKDEMKVRLRMEGSVNGHDFVIDGTGSGKPKEGTQTIELKVVKGGPLPFAYDILTTAFHYGNRVFAKYPKDIPNYFEQSFPEGYSWERSMIFEDGGICIARNDITMDGGTFYNKVRFEGVNFPPNGPVMQKNTLKWEPSTEKMYARDGVLTGDIDMSLLLKGGGHYRCDFRTTFKAKEKGVKLPGTHYIDHSIEILSHRNDYNNVTLFEHAVARSGLQD", "notes": "No tag is stated for the gel sample"}, "B5": {"name": "m16 (monomeric mutant of Momiji) (other)", "chain": "B4 chain with I95T, I101V, I103T, V124T, N136K, F174M, F212Y", "notes": "as for B4"}}, "key": {"[1]": {"target": "the molecule itself", "assay": "self-association; pseudonative SDS/PAGE, 12.5% acrylamide, sample not boiled", "text": "Since Kaede forms a tetramer, there may be cases where its expression pattern becomes abnormal when another protein is fused with Kaede. Thus, in Kaede, threonine (T) at position 158 was substituted with arginine (R), and alanine (A) at position 160 was substituted with glutamic acid (E), so as to produce a dimeric mutant. This mutant was named as Kaede 2. The amino acid sequence and nucleotide sequence of Kaede 2 are shown in SEQ ID NOS: 7 and 8 in the sequence listing, respectively. In electrophoresis on 12.5% acrylamide gel where sample was not boiled (Pseudonative SDS/PAGE), a band of Kaede 2 was detected as a molecule with a lower molecular weight than that of Kaede (FIG. 8)."}, "[2]": {"target": "the molecule itself", "assay": "self-association; pseudonative SDS/PAGE, 12.5% acrylamide, not boiled", "text": "(§1) In Momiji, asparagine (N) at position 11 was substituted with arginine (R), leucine (L) at position 29 was substituted with threonine (T), tyrosine (Y) at position 122 was substituted with glutamic acid (E), lysine (K) at position 136 was substituted with asparagine (N), glutamine (Q) at position 138 was substituted with leucine (L), glutamine (Q) at position 142 was substituted with proline (P), asparagine (N) at position 159 was substituted with aspartic acid (D), alanine (A) at position 161 was substituted with serine (S), tyrosine (Y) at position 190 was substituted with threonine (T), phenylalanine (F) at position 192 was substituted with tyrosine (Y), cysteine (C) at position 196 was substituted with serine (S), and 6 amino acids from position 224 to position 229 were deleted. By such operations, the above Momiji became a dimer (FIG. 24). This dimer had fluorescence properties that ultraviolet ray-irradiation-dependently change from green to red, which were equivalent to those of Momiji (FIG. 25). This mutant was named as d16. The amino acid sequence and nucleotide sequence of d16 are shown in SEQ ID NOS: 15 and 16, respectively."}, "[3]": {"target": "the molecule itself", "assay": "self-association; pseudonative SDS/PAGE, 12.5% acrylamide", "text": "as §1"}, "[4]": {"target": "the molecule itself", "assay": "pseudonative SDS/PAGE, 12.5% acrylamide gel (self-association)"}}, "note": "Where a chain is given by its changes, count along the chain named. In names and notes the source's numbering stands."}
{"protein": "B1", "values": [{"measurement": "binding result", "setting": "[1]", "result": "binds"}]}
{"protein": "B2", "values": [{"measurement": "binding result", "setting": "[1]", "result": "binds"}]}
{"protein": "B3", "values": [{"measurement": "binding result", "setting": "[2]", "result": "binds"}]}
{"protein": "B4", "values": [{"measurement": "binding result", "setting": "[3]", "result": "binds"}]}
{"protein": "B5", "values": [{"measurement": "binding result", "setting": "[4]", "result": "no binding"}]}
